Entries after “also recorded” stand apart in the source; their conditions may differ.
Columns and labels:
[1] = test system: phosphorylation of c-Met and EGFR; experiment: Western blot of receptor phosphorylation in U87MG cells; format: cell-based, human; conditions: 200 nM, 20 min
Protocol: (§1) Overnight cultures of the glioblastoma cell line U87MG (ATCC HTB-14) were moved from a medium with 10% FBS to a low serum medium with 0.1% FBS to optimise sensitivity to ligand stimulation. The cells were incubated overnight. […] Controls without antibody treatment were included, with and without growth factor stimulation. The treated cells were lysed using lysis buffer (10 mM Tris® pH7.5, 150 mM NaCl, 1 mM EDTA) comprising 1:100 protease inhibitor cocktail (Calbiochem, 539131) and 1:100 Phosphatase inhibitor cocktail (Calbiochem, 524625) and the lysates collected for analysis.
(§2) Lysate samples were subjected to standard western blotting analysis using a 4-12% Bis-Tris® protein gel (ThermoFisher, NP0322BOX) and transferred to a nitrocellulose membrane (ThermoFisher, IB301001). The membrane was blocked with 5% Marvel milk/TBST and then probed for phospho-c-Met using a rabbit monoclonal antibody specific for c-Met phosphorylated at Tyr1234/1235 (Cell Signaling, 3077), phospho-EGFR using a mouse monoclonal antibody specific for EGFR phosphorylated at Tyr1068 (Cell Signaling, 2236), phospho-MAPK using a mouse monoclonal antibody specific for p44/42 MAPK (ERK1/2) phosphorylated at Thr202/Tyr204 (Cell Signaling, 9106), and phospho-Akt using a rabbit monoclonal antibody specific for Akt phosphorylated at Ser473 (Cell Signaling, 9271). […]

[2] = test system: phosphorylation of MAPK and Akt; experiment: Western blot of downstream signalling in U87MG cells; format: cell-based, human; conditions: 200 nM (200+200 nM for combination), HGF and EGF present
Protocol: as §1, §2

NCI-H596 cells = experiment: Cell proliferation, NCI-H596 cells stimulated with EGF and HGF; format: cell-based; conditions: NCI-H596, 10-1000 nM, 2 ng/ml EGF and 12 ng/ml HGF, 3 days
Protocol: NCI-H596 (ATCC HTB-178) is a lung adenosquamous cancer cell line that engages both the EGF and HGF signalling pathways and was used to investigate the ability of mAb^2 molecules to block proliferation. The same method was used as in the U87MG assay described above, except that the NCI-H596 cells were stimulated with both EGF and HGF ligands. One day before the treatment, the level of FBS used in the media was reduced from 10% to 1%. The next day treatments were added at various concentrations (10-1000 nM) in the presence of 2 ng/ml EGF (R&D systems, 236-EG) and 12 ng/ml HGF (PeproTech, 100-39) and incubated for 3 days at 37° C. Controls of HGF+EGF, EGF only, HGF only and no ligand stimulation were also included.

NCI-H1975 cells = experiment: Cell proliferation, NCI-H1975 cells stimulated with HGF; format: cell-based
Protocol: NCI-H1975 (ATCC CRL-5908) is a non-small cell lung cancer (NSCLC) cell line which expresses constitutively active mutated EGFR L858R and EGFR T790M (Kobayashi et al 2005). These mutations are acquired secondary mutations known to confer resistance to EGFR tyrosine kinase inhibitor (TKI) therapies in NSCLC patients. The NCI-H1975 cell line also expresses c-Met. […] The same method was used as in the U87MG assay described above, except that the NCI-H1975 cells were stimulated with HGF. One day before the treatment, the medium used was changed from containing 10% FBS to containing no serum. Treatments were added at various concentrations (0.003-300 nM) in the presence of 80 ng/ml HGF and incubated for 3 days at 37° C.

KP4 cells = experiment: Cell proliferation, KP4 cells (WST-1); format: cell-based; conditions: KP4, 0.003-300 nM, 3 days
Protocol: KP4 (Riken RCB1005) is a pancreatic ductal cell carcinoma which has autocrine production of HGF. […] After 3 days, cells were analysed using cell proliferation reagent WST-1 (Roche) to determine the number of viable cells as described in the manufacturer's protocol. The stable tetrazolium salt WST-1 is cleaved to a soluble formazan by the glycolytic production of NAD(P)H in viable cells. The amount of formazan dye formed is quantitated at absorbances 450 nm and 630 nm.

HGF = target: T1, HGF (Homo sapiens, UniProt P14210); experiment: Free HGF in culture media of U87MG cells (HGF Human ELISA Kit); format: cell-based; conditions: 30 nM, 4 days, compared to controls
T1 construct: examined in U87MG cells that secrete HGF; endogenous in cells; host or cells: U87MG
Protocol: It was hypothesised that internalisation of HGF by anti-EGFR/HGF mAb^2 leads to reduced level of HGF in the system. To test this hypothesis, the change in level of free HGF caused by incubation with anti-EGFR/HGF mAb^2 was examined in U87MG cells that secrete HGF. U87MG cultures were incubated with different treatments at 30 nM for 4 days at 37° C. […] On day 4, the media from each cell culture were collected for HGF level analysis. HGF concentration was measured using HGF Human ELISA Kit (ThermoFisher, KAC2211) following the manufacturer's protocol. Using monoclonal anti-HGF antibodies, the free HGF in media was detected (free HGF was defined as HGF in the media which was bound by detection antibodies).

HER3 = target: T2, HER3 (Homo sapiens, UniProt P21860); experiment: ELISA for specific binding within the HER receptor family; conditions: 1 μM, antigen coated at 1 μg/ml
T2 construct: purchased Sino Biological 10201-H08H
Protocol: Antigens including EGFR (produced in house), HER2 His Tag (Sino Biological, 10004-H08H), HER3 His Tag (Sino Biological, 10201-H08H) and HER4 His Tag (Sino Biological, 10363-H08H) were biotinylated using the Lightning-Link™ Biotin kit (Innova Biosciences, 704-0030) following the supplier's protocol. The biotinylated antigens were coated in different wells on MaxiSorp™ plate (Nunc) at 1 μg/ml in PBS overnight at 4° C. and excess unbound antigens were washed off with PBS. The antigen-coated plate was blocked with 1% TWEEN® in PBS (PBST) for 1 hour at room temperature. After removing PBST, the anti-EGFR Fcabs (1 μM) and relevant positive and IgG negative antibody controls (1 μM) in 0.1% PBST were incubated for 1 hour to bind the coated antigens followed by washing. The bound Fcabs or antibodies were detected by Protein A-HRP (ThermoFisher 101023) or anti-mouse IgG-horseradish peroxidase (HRP) (Sigma A9044) for the HER4 positive control. Tetramethylbenzidine (TMB) (eBioscience 00-4201-56) was used as the substrate to interact with HRP enzyme for colorimetric detection. 1 M Sulphuric acid was added to stop the enzyme-substrate reaction. The plate was read at an absorbance of 450 nm subtracted by 630 nm as background.

T1 sequence (P14210 32-728): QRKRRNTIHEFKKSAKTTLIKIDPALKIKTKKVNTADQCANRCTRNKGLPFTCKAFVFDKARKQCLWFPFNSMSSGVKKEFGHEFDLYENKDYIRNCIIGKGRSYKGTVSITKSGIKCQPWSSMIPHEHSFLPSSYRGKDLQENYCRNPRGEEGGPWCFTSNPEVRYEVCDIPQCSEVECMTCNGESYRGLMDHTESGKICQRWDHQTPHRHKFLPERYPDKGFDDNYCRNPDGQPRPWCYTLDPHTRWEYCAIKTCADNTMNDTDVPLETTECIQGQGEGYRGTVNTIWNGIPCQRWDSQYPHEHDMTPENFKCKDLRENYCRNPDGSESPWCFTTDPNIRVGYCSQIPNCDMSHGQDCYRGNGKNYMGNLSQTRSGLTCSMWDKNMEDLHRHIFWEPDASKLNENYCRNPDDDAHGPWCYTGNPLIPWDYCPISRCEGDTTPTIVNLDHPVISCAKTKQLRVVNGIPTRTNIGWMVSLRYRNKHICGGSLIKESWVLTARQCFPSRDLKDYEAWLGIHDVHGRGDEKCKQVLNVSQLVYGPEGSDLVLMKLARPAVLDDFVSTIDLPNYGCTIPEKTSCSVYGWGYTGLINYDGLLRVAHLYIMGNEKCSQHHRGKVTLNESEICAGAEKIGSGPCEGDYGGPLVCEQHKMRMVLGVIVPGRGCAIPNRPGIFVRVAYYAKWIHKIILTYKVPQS

| Molecule | block of phosphorylation of c-Met by HGF [1] | block of phosphorylation of MAPK and Akt [2] | inhibition of cell proliferation induced by HGF and EGF (NCI-H596 cells) | reduction of cell proliferation induced by HGF (NCI-H1975 cells; NCI-H1975, 0.003-300 nM, 80 ng/ml HGF, 3 days) | reduction of cell proliferation induced by HGF (NCI-H1975 cells; NCI-H1975, antibodies 300 nM with and without erlotinib (2 μM)) | reduction in cell proliferation (WST-1) (KP4 cells) | concentration of free HGF in the media (HGF) | binding to HER3 (HER3) |
| --- | --- | --- | --- | --- | --- | --- | --- | --- |
| ficlatuzumab (antibody, V domains shown, FI VH domain; FI VL domain) VH: QVQLVQPGAEVKKPGTSVKLSCKASGYTFTTYWMHWVRQAPGQGLEWIGEINPTNGHTNYNQKFQGRATLTVDKSTSTAYMELSSLRSEDTAVYYCARNYVGSIFDYWGQGTLLTVSS VL: DIVMTQSPDSLAMSLGERVTLNCKASENVVSYVSWYQQKPGQSPKLLIYGASNRESGVPDRFSGSGSATDFTLTISSVQAEDVADYHCGQSYNYPYTFGQGTKLEIKR | able to block the phosphorylation of c-Met by HGF | unable to block the phosphorylation of MAPK and Akt | unable to block stimulation when both ligands were present | did not | No effect | concentration-dependent reduction in cell proliferation; also recorded: inhibited cell proliferation, but to a lesser extent | significant decrease in the concentration of free HGF in the media |  |
| MM121: antibody MM121 (Merrimack), positive control for HER3 (antibody, chains of the INN, looked up) heavy: EVQLLESGGGLVQPGGSLRLSCAASGFTFSHYVMAWVRQAPGKGLEWVSSISSSGGWTLYADSVKGRFTISRDNSKNTLYLQMNSLRAEDTAVYYCTRGLKMATIFDYWGQGTLVTVSSASTKGPSVFPLAPCSRSTSESTAALGCLVKDYFPEPVTVSWNSGALTSGVHTFPAVLQSSGLYSLSSVVTVPSSNFGTQTYTCNVDHKPSNTKVDKTVERKCCVECPPCPAPPVAGPSVFLFPPKPKDTLMISRTPEVTCVVVDVSHEDPEVQFNWYVDGVEVHNAKTKPREEQFNSTFRVVSVLTVVHQDWLNGKEYKCKVSNKGLPAPIEKTISKTKGQPREPQVYTLPPSREEMTKNQVSLTCLVKGFYPSDIAVEWESNGQPENNYKTTPPMLDSDGSFFLYSKLTVDKSRWQQGNVFSCSVMHEALHNHYTQKSLSLSPG light: QSALTQPASVSGSPGQSITISCTGTSSDVGSYNVVSWYQQHPGKAPKLIIYEVSQRPSGVSNRFSGSKSGNTASLTISGLQTEDEADYYCCSYAGSSIFVIFGGGTKVTVLGQPKAAPSVTLFPPSSEELQANKATLVCLVSDFYPGAVTVAWKADGSPVKVGVETTKPSKQSNNKYAASSYLSLTPEQWKSHRSYSCRVTHEGSTVEKTVAPAECS |  |  |  |  |  |  |  | bound to their corresponding antigens |

From patent publication US11629193B2, “EGFR binding molecules” (F-STAR BETA LIMITED, priority 2016, dated 2023)
